Laboratory results reported in the supplement of paper PMC7877785.
± gives the uncertainty stated by the source.

Assay: self-splicing fitness, log relative to wild type (ln ratio); higher = more splicing; Tetrahymena group I intron in knt gene, E. coli kanamycin selection, DiMSum; sequences stand for … in CUCUCU…GGAGGGAAAAGUUAUCAGGCAUGCACCUGGUAGCUAGUCUUUAAACCAAUAGAUUGCAUCGGUUUAAAAGGCAAGACCGUCAAAUUGCGGGAAAGGGGUCAACAGCCGUUCAGUACCAAGUCUCAGGGGAAACUUUGAGAUGGCCUUGCAAAGGGUAUGGUAAUAAGCUGACGGACAUGGUCCUAACCACGCAGCCAAGUCCUAAGUCAACAGAUCUUCUGUUGAUAUGGAUGCAGUUCACAGACUAAAUGUCGGUCGGGGAAGAUGUAUUCUUCUCAUAAGAUAUAGUCGGACCUCUCCUUAAUGGGAGCUAGCGGAUGAAGUGAUGCAACACUGGAGCCGCUGGGAACUAAUUUGUAUGCGAAAGUAUAUUGAUUAGUUUUGGAGUACUCGUGGUCG
Summary of the method: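 The eight P1ex-region nucleotides of an intron in the knt kanamycin-resistance gene on pET-22b(+) were all randomised and the library put into E. coli BL21(DE3). Six replicate transformations were grown overnight at 37°C or 30°C on LB agar with or without 25 μg/mL kanamycin, together with 100 μg/mL carbenicillin, 50 μM IPTG and 0.2% rhamnose. Colonies were pooled and amplicon-sequenced on an Illumina HiSeq 2500. Fitness from DiMSum is the error-weighted combination of wild-type-normalised replicate fold changes, kanamycin over none.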

| Sequence | self-splicing fitness (ln) (30 °C) | self-splicing fitness (ln) (37 °C) |
| --- | --- | --- |
| AUCAAGCAAUAUUACGGCCG | -0.0854 ± 0.092 | -0.00151 ± 0.15 |
| AUCAAGCAAUAUUACGGCGU | 0.235 ± 0.1 | 0.219 ± 0.11 |
| AUCAAGCAAUAUUACGGGCG | -1.34 ± 0.06 | -0.467 ± 0.079 |
| AUCAAGCAAUAUUACGGGGC | -3.13 ± 0.24 | -3.01 ± 0.26 |
| AUCAAGCAAUAUUACGGGGG | -3.79 ± 0.22 | -2.64 ± 0.15 |
| AUCAAGCAAUAUUACGGGUU | -3.44 ± 0.14 | -1.22 ± 0.11 |
| AUCAAGCAAUAUUACGUAAC | -2.98 ± 0.16 | -2.18 ± 0.19 |
| AUCAAGCAAUAUUACGUAUU | -2.7 ± 0.09 | -1.5 ± 0.11 |
| AUCAAGCAAUAUUACGUCGC | -4 ± 0.2 | -2.65 ± 0.11 |
| AUCAAGCAAUAUUACGUCUU | -1.86 ± 0.072 | -0.301 ± 0.073 |
| AUCAAGCAAUAUUACGUGAC | -2.04 ± 0.12 | -1.07 ± 0.11 |
| AUCAAGCAAUAUUACGUGAG | -0.619 ± 0.046 | 0.349 ± 0.073 |
| AUCAAGCAAUAUUACGUGUU | -3.23 ± 0.11 | -1.58 ± 0.097 |
| AUCAAGCAAUAUUACGUUUU | -1.6 ± 0.097 | -0.791 ± 0.12 |
| AUCCAGCAAUAUUACGAAAG | -3.77 ± 0.18 | -2.76 ± 0.21 |
| AUCCAGCAAUAUUACGACCA | -0.725 ± 0.15 | -0.224 ± 0.17 |
| AUCCAGCAAUAUUACGCAAG | -2.75 ± 0.18 | 0.207 ± 0.14 |
| AUCCAGCAAUAUUACGCACC | -1.19 ± 0.13 | 0.657 ± 0.17 |
| AUCCAGCAAUAUUACGCGAC | -2.56 ± 0.14 | -1.86 ± 0.18 |
| AUCCAGCAAUAUUACGCGGA | -3.7 ± 0.25 | -2.5 ± 0.17 |
| AUCCAGCAAUAUUACGCUCG | -1.75 ± 0.26 | -0.356 ± 0.22 |
| AUCCAGCAAUAUUACGCUUA | -0.592 ± 0.064 | 0.389 ± 0.094 |
| AUCCAGCAAUAUUACGCUUG | -3.27 ± 0.2 | -2.7 ± 0.25 |
| AUCCAGCAAUAUUACGGACA | -0.527 ± 0.099 | -0.096 ± 0.11 |

| Sequence | self-splicing fitness (ln) (30 °C) | self-splicing fitness (ln) (37 °C) |
| --- | --- | --- |
| AUCCAGCAAUAUUACGGACC | -1.71 ± 0.13 | 0.282 ± 0.13 |
| AUCCAGCAAUAUUACGGAGC | -3.09 ± 0.21 | -2.2 ± 0.24 |
| AUCCAGCAAUAUUACGGCCA | -0.362 ± 0.071 | -0.298 ± 0.084 |
| AUCCAGCAAUAUUACGGCGG | -1.04 ± 0.09 | -0.327 ± 0.11 |
| AUCCAGCAAUAUUACGGCGU | -0.0553 ± 0.058 | 0.269 ± 0.07 |
| AUCCAGCAAUAUUACGGGAG | -1.63 ± 0.066 | -1.32 ± 0.074 |
| AUCCAGCAAUAUUACGGGGC | -2.89 ± 0.14 | -2.82 ± 0.26 |
| AUCCAGCAAUAUUACGGUCU | -0.68 ± 0.053 | -0.109 ± 0.074 |
| AUCCAGCAAUAUUACGUAAC | -1.82 ± 0.13 | -1.91 ± 0.22 |
| AUCCAGCAAUAUUACGUAGA | -0.783 ± 0.073 | -0.0552 ± 0.12 |
| AUCCAGCAAUAUUACGUCAG | -2.99 ± 0.11 | -2.15 ± 0.12 |
| AUCCAGCAAUAUUACGUCCC | -0.894 ± 0.22 | -1.1 ± 0.28 |
| AUCCAGCAAUAUUACGUGCA | -1.63 ± 0.091 | -0.196 ± 0.091 |
| AUCCAGCAAUAUUACGUGCC | -3.16 ± 0.21 | -1.09 ± 0.16 |
| AUCCAGCAAUAUUACGUGCG | -1.65 ± 0.078 | -0.875 ± 0.076 |
| AUCCAGCAAUAUUACGUGUG | -1.79 ± 0.057 | -0.983 ± 0.06 |
| AUCGAGCAAUAUUACGAAUU | -3.57 ± 0.25 | -2.1 ± 0.2 |
| AUCGAGCAAUAUUACGACGG | -3.75 ± 0.44 | -1.7 ± 0.33 |
| AUCGAGCAAUAUUACGAGUU | -2.66 ± 0.23 | -1.31 ± 0.18 |
| AUCGAGCAAUAUUACGCAAG | -3.22 ± 0.43 | -1.72 ± 0.26 |
| AUCGAGCAAUAUUACGCGGC | -2.86 ± 0.5 | -3.13 ± 0.47 |
| AUCGAGCAAUAUUACGGCGG | -2.61 ± 0.14 | -1.36 ± 0.14 |
| AUCGAGCAAUAUUACGGGAA | -2.59 ± 0.24 | -2.4 ± 0.22 |
| AUCGAGCAAUAUUACGGGUC | -3.91 ± 0.19 | -3.15 ± 0.18 |

| Sequence | self-splicing fitness (ln) (30 °C) | self-splicing fitness (ln) (37 °C) |
| --- | --- | --- |
| AUCGAGCAAUAUUACGGUGG | – | -2.04 ± 0.36 |
| AUCGAGCAAUAUUACGGUUG | -3.96 ± 0.42 | -3.32 ± 0.37 |
| AUCGAGCAAUAUUACGUCAG | -3.36 ± 0.21 | -2.99 ± 0.22 |
| AUCGAGCAAUAUUACGUCUC | -3.13 ± 0.22 | -2.18 ± 0.33 |
| AUCGAGCAAUAUUACGUGGC | -2.91 ± 0.26 | -2.52 ± 0.49 |
| AUCGAGCAAUAUUACGUGUA | -3.46 ± 0.33 | -2.11 ± 0.18 |
| AUCGAGCAAUAUUACGUUAG | -3.73 ± 0.29 | -0.583 ± 0.21 |
| AUCGAGCAAUAUUACGUUCU | -1.32 ± 0.074 | -1 ± 0.089 |
| AUCGAGCAAUAUUACGUUGA | -3.44 ± 0.27 | -2.94 ± 0.22 |
| AUCGAGCAAUAUUACGUUGG | -4.07 ± 0.42 | -2.37 ± 0.31 |
| AUCUAGCAAUAUUACGAUUU | -0.629 ± 0.084 | 0.317 ± 0.11 |
| AUCUAGCAAUAUUACGCAAC | -3.38 ± 0.37 | -2.06 ± 0.32 |
| AUCUAGCAAUAUUACGCACU | -1.42 ± 0.17 | 0.0807 ± 0.17 |
| AUCUAGCAAUAUUACGCAUC | -4.16 ± 0.47 | -2.81 ± 0.4 |
| AUCUAGCAAUAUUACGCCGU | -0.173 ± 0.089 | -0.324 ± 0.1 |
| AUCUAGCAAUAUUACGCCUA | -1.09 ± 0.16 | -0.389 ± 0.16 |
| AUCUAGCAAUAUUACGCGAG | -1.92 ± 0.14 | -0.183 ± 0.1 |
| AUCUAGCAAUAUUACGGCGG | -1.12 ± 0.083 | -1.15 ± 0.1 |
| AUCUAGCAAUAUUACGGGCA | -1.25 ± 0.15 | -0.862 ± 0.18 |
| AUCUAGCAAUAUUACGGGGA | -1.48 ± 0.073 | -1.03 ± 0.087 |
| AUCUAGCAAUAUUACGGUAA | -0.976 ± 0.12 | -0.736 ± 0.14 |
| AUCUAGCAAUAUUACGUAGA | -2.39 ± 0.12 | -0.832 ± 0.11 |
| AUCUAGCAAUAUUACGUCAA | -2.6 ± 0.29 | -1.68 ± 0.21 |
| AUCUAGCAAUAUUACGUCAC | -4.04 ± 0.26 | -2.11 ± 0.2 |

| Sequence | self-splicing fitness (ln) (30 °C) | self-splicing fitness (ln) (37 °C) |
| --- | --- | --- |
| AUCUAGCAAUAUUACGUUGG | -3.4 ± 0.19 | -1.88 ± 0.19 |
| AUGAAGCAAUAUUACGAACC | 0.0578 ± 0.14 | 0.124 ± 0.17 |
| AUGAAGCAAUAUUACGACCC | -1.6 ± 0.22 | – |
| AUGAAGCAAUAUUACGAUGA | -0.515 ± 0.07 | 0.274 ± 0.089 |
| AUGAAGCAAUAUUACGAUUA | -0.416 ± 0.082 | 0.189 ± 0.12 |
| AUGAAGCAAUAUUACGAUUC | -2.23 ± 0.1 | -1.33 ± 0.14 |
| AUGAAGCAAUAUUACGCAGA | -1.63 ± 0.12 | -0.868 ± 0.1 |
| AUGAAGCAAUAUUACGCGCC | -0.426 ± 0.085 | -0.127 ± 0.11 |
| AUGAAGCAAUAUUACGCGUC | -4.16 ± 0.2 | -1.48 ± 0.13 |
| AUGAAGCAAUAUUACGCUUA | -0.65 ± 0.061 | -0.151 ± 0.075 |
| AUGAAGCAAUAUUACGGACA | -0.277 ± 0.077 | 0.5 ± 0.11 |
| AUGAAGCAAUAUUACGGGGA | -2.4 ± 0.15 | -1.31 ± 0.17 |
| AUGAAGCAAUAUUACGGUGC | -2.3 ± 0.15 | -1.99 ± 0.19 |
| AUGAAGCAAUAUUACGUAGC | -4.32 ± 0.42 | -1.45 ± 0.27 |
| AUGAAGCAAUAUUACGUGUU | -1.64 ± 0.063 | -1.64 ± 0.078 |
| AUGCAGCAAUAUUACGACAU | -0.23 ± 0.012 | 0.215 ± 0.032 |
| AUGCAGCAAUAUUACGACGU | -0.0321 ± 0.072 | 0.706 ± 0.083 |
| AUGCAGCAAUAUUACGAGGA | -3.57 ± 0.28 | -2.9 ± 0.21 |
| AUGCAGCAAUAUUACGAGUG | -2.88 ± 0.11 | -1.64 ± 0.11 |
| AUGCAGCAAUAUUACGCAAG | -1.92 ± 0.091 | -1.72 ± 0.096 |
| AUGCAGCAAUAUUACGCAUA | – | -2.06 ± 0.38 |
| AUGCAGCAAUAUUACGCAUC | – | -2.67 ± 0.28 |
| AUGCAGCAAUAUUACGCCCA | -1.11 ± 0.12 | 0.0949 ± 0.14 |
| AUGCAGCAAUAUUACGCUCU | -1.34 ± 0.084 | 0.22 ± 0.084 |
